Source: US20180299467A1

Assays:
F-actin [1] = assay: co-sedimentation with F-actin in the presence of TM, densitometry of pellet (FIG. 3C)
[2] = test system: citrullinated F-actin (treated with PAD2)
F-actin [3] = test system: F-actin

percent of TnI present in the pellet (F-actin [1])	Substance	actomyosin HMM-ATPase activity (rate of ATP hydrolysis) [2]	actomyosin HMM-ATPase activity (F-actin [3])	decrease in actomyosin HMM-ATPase activity against non-citrullinated HMM (F-actin [3])	increase in actomyosin HMM-ATPase rate against unmodified F-actin [2]
> 95%	cardiac troponin I (TnI), non-citrullinated				
> 95%	citrullinated cardiac troponin I (TnI treated with PAD2)				
	citrullinated heavy meromyosin (HMM treated with PAD2)	0.368±0.005 nmol Pi	0.22±0.002 nmol Pi	corresponding to 30% decrease in the enzyme activity	
	heavy meromyosin (HMM), non-citrullinated		0.32±0.01 nmol Pi		increased actomyosin HMM-ATPase rate by 55% compared to the unmodified F-actin
